Data set [1] addresses T1, HLA-A*02:01 (Homo sapiens, UniProt P04439, D140Y/D185E/D98H/E176V/E277Q/G131W/G231S/I119V/I121R/I166T/I218V/L300P/L318F/N151K/N90K/P208A/P217A/Q86G/Q94H/R138H/R169H/T345S). It is filed as cell-based.
The target of data set [2] is T1, HLA-A*02:01. The experiment in a line: QuickSwitch Quant HLA-A*02:01 Tetramer control peptide exchange.
The subject of data set [3] is CD8+ T cells. The data set is classed as cell-based, human. Also noted: key: y = yes; TBD = to be determined.
Data set [4] addresses HLA-B*57:01 (Homo sapiens, UniProt P01889, D201E/D98Y/E176V/E187L/E204Q/E69M/E70A/G107R/I90N/K202T/L105A/L119I/N104I/N87E/Q89R/Q94S/R106L/R155S/R180L/R86G/S101N/S121V/S35A/S48A/T118I/V36M/Y140S/Y91M). As to the kind of experiment: Random 9-mer EpiScan screen in HLA-B57-expressing EpiScan cells with and without abacavir. The data set is classed as cell-based. To be noted: 48 h abacavir treatment at 6 μM.

The conditions of data set [5]: cited from earlier work.

The source of these data is US20230035859A1, “COMPOSITIONS AND METHODS FOR EPITOPE SCANNING” (priority 2019, published 2023).

As to TLATHGLAAV, the “EpiScan MFI” value in data set [1] stood at 4.040. Besides, the “% Peptide Exchange” value in data set [2] was 97.98%.

As for VLYQDVNCTEV, in data set [1], the “EpiScan MFI” value is reported as 5.598. Moreover, the “% Peptide Exchange” value in data set [2] stood at 97.92%.

For YIDIGNYTV, the “EpiScan MFI” value in data set [1] stood at 4.421. The “% Peptide Exchange” value in data set [2] is 97.94%.

For the compound VMAYITGGVV, in data set [3], the “Patient tetramer positivity?” value is listed as “y”. Moreover, in data set [1], the “EpiScan MFI” value is on record as 4.641. For the same compound, in data set [2], the “% Peptide Exchange” value is reported as 99.07%.

In the case of `Nc1nc(NC2CC2)c2ncn([C@H]3C=C[C@@H](CO)C3)c2n1` [Abacavir], in data set [4], the “binding peptides with C-terminal Residue C, Abacavir treated” value is reported as 3; the “binding peptides with C-terminal Residue F, Abacavir treated” value stood at 66; the “binding peptides with C-terminal Residue G, Abacavir treated” value came to 4; the “binding peptides with C-terminal Residue I, Abacavir treated” value is on record as 59. Moreover, in data set [4], the “binding peptides with C-terminal Residue L, Abacavir treated” value was found to be 10; the “binding peptides with C-terminal Residue M, Abacavir treated” value was 5; the “binding peptides with C-terminal Residue N, Abacavir treated” value is reported as 1; the “binding peptides with C-terminal Residue R, Abacavir treated” value is given as 3. Also, in data set [4], the “binding peptides with C-terminal Residue V, Abacavir treated” value is listed as 28; the “binding peptides with C-terminal Residue W, Abacavir treated” value came out at 502; the “binding peptides with C-terminal Residue Y, Abacavir treated” value was 22. Also, the “hypersensitivity, share of patients” value in data set [5] is “around 5%”.

For VMVELVAEL, in data set [3], the “Patient tetramer positivity?” value is on record as “y”. Also, the “EpiScan MFI” value in data set [1] stood at 5.338. The “% Peptide Exchange” value in data set [2] came to 98.63%.

For the compound VMAYITGGV, the “EpiScan MFI” value in data set [1] is recorded as 4.528. For the same compound, the “% Peptide Exchange” value in data set [2] is on record as 99.07%.

For AMDEFIERYKL, in data set [1], the “EpiScan MFI” value is given as 2.352. The “% Peptide Exchange” value in data set [2] worked out at 96.89%.

As for SLPGVFCGV, the “Patient tetramer positivity?” value in data set [3] is given as “y”. In data set [1], the “EpiScan MFI” value came out at 6.418. In addition, the “% Peptide Exchange” value in data set [2] was 98.00%.
